The target of assay [1] is T1, SETD7 (human) (UniProt Q8WTS6).
T1 sequence: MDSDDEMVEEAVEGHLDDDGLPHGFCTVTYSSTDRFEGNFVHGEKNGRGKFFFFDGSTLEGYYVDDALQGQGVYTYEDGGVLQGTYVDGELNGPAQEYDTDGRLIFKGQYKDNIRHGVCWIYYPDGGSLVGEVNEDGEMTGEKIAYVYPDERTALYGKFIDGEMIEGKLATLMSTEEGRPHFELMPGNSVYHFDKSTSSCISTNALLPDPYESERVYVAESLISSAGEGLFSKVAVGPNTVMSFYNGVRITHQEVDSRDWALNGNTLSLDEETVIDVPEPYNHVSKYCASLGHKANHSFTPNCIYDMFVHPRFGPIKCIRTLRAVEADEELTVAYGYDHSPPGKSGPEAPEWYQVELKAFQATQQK

Assay [2] concerns the target G9a (human) (UniProt Q96KQ7).
For assay [3], the target named is GLP (human) (UniProt Q9H9B1).

A value given as a limit tells only on which side of the number the result lay.

GLP (human), sequence (Q9H9B1 whole entry): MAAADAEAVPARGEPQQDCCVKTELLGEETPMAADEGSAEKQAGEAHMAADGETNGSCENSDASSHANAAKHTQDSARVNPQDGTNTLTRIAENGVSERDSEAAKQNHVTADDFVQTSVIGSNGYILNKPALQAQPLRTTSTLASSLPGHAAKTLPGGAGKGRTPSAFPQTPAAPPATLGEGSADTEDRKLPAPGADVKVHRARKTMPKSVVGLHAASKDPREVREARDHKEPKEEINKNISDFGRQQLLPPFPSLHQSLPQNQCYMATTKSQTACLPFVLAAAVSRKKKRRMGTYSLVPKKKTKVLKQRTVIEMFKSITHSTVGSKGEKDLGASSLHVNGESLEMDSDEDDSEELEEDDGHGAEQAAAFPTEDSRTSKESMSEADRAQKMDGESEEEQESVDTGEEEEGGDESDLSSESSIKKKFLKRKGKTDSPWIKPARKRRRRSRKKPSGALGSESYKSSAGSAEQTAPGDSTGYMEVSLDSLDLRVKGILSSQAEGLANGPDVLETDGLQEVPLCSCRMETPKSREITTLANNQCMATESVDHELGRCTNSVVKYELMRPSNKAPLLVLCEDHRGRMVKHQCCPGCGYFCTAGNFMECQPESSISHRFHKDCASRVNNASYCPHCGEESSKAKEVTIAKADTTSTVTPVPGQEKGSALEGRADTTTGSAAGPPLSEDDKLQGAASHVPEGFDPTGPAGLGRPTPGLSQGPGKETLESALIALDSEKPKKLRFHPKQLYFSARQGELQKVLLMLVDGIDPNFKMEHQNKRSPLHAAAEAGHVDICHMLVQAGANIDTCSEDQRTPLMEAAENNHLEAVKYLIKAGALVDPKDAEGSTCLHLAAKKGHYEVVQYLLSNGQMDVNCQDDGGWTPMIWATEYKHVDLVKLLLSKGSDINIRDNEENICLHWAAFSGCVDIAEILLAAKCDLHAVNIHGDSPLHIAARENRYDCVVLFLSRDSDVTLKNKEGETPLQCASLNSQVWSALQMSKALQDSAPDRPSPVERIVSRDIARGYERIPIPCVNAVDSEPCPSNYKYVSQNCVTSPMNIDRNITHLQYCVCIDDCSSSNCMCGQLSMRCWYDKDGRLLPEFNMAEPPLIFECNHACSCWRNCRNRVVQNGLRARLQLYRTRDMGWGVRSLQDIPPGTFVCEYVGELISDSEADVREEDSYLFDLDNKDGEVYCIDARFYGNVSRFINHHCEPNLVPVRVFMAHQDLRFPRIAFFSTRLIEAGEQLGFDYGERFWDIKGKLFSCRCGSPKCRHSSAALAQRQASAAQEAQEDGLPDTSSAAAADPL
G9a (human), sequence (Q96KQ7 whole entry): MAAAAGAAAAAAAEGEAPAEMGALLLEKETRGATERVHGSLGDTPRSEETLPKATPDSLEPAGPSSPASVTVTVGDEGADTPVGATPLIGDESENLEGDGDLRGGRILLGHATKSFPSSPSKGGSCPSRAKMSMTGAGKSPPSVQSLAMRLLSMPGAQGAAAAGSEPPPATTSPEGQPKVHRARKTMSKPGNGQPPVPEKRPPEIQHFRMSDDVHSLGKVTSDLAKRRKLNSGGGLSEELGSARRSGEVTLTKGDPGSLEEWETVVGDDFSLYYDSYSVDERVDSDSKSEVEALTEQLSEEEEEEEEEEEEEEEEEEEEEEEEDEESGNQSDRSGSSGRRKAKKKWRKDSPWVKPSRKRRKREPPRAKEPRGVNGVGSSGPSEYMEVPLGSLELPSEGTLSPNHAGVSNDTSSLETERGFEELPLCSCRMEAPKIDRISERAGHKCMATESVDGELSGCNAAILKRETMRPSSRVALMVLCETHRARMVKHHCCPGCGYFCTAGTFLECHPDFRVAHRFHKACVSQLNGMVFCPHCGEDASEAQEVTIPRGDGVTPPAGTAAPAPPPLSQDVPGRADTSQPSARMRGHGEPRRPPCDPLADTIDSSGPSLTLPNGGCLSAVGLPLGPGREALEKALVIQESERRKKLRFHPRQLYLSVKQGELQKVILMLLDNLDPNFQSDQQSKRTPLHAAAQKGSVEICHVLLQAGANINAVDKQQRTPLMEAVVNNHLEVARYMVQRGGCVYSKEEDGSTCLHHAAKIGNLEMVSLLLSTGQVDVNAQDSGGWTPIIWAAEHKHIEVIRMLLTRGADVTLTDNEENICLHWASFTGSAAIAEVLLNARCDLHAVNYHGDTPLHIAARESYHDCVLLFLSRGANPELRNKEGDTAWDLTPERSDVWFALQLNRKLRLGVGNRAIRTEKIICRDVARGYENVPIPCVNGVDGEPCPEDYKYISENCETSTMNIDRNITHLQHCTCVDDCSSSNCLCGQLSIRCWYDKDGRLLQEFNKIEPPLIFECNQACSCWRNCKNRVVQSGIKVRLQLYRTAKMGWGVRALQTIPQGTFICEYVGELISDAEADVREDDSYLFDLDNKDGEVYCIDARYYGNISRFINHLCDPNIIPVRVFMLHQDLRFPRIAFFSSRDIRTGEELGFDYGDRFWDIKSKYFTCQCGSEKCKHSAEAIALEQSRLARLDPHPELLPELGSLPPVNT

As for “H3K4 analog histone peptide with meta-aminophenylalanine (F3a) at position 4”, the IC50 of inhibition of SETD7 (100 nM) methylation of a 21-mer H3 peptide (residues 1–21, 5 µM) with SAM (20 µM), MALDI-TOF MS in assay [1] was greater than 100 µM.

For the substance H3Kba9 histone peptide, the IC50 of inhibition of G9a (100 nM) methylation of a 21-mer H3 peptide (residues 1–21, 5 µM) with SAM (20 µM), MALDI-TOF MS in assay [2] is greater than 100 µM. This substance registered an IC50 of inhibition of GLP (100 nM) methylation of a 21-mer H3 peptide (residues 1–21, 5 µM) with SAM (20 µM), MALDI-TOF MS in assay [3] greater than 100 µM.

In assay [3], H3F3a9 histone peptide showed an IC50 of inhibition of GLP (100 nM) methylation of a 21-mer H3 peptide (residues 1–21, 5 µM) with SAM (20 µM), MALDI-TOF MS of 26 µM.

On to H3F4a9 histone peptide, for which the IC50 of inhibition of G9a (100 nM) methylation of a 21-mer H3 peptide (residues 1–21, 5 µM) with SAM (20 µM), MALDI-TOF MS in assay [2] was greater than 100 µM. In assay [3], this substance returned an IC50 of inhibition of GLP (100 nM) methylation of a 21-mer H3 peptide (residues 1–21, 5 µM) with SAM (20 µM), MALDI-TOF MS greater than 100 µM.

As for H3AP9 histone peptide, the IC50 of inhibition of G9a (100 nM) methylation of a 21-mer H3 peptide (residues 1–21, 5 µM) with SAM (20 µM), MALDI-TOF MS in assay [2] was greater than 100 µM. This substance also registered an IC50 of inhibition of GLP (100 nM) methylation of a 21-mer H3 peptide (residues 1–21, 5 µM) with SAM (20 µM), MALDI-TOF MS in assay [3] greater than 100 µM.

Turning to “H3K4 analog histone peptide with pyridylalanine (AP) at position 4”, the IC50 of inhibition of SETD7 (100 nM) methylation of a 21-mer H3 peptide (residues 1–21, 5 µM) with SAM (20 µM), MALDI-TOF MS in assay [1] was greater than 100 µM.

The substance “H3K4 analog histone peptide with benzylamine (Kba) at position 4” had an IC50 of inhibition of SETD7 (100 nM) methylation of a 21-mer H3 peptide (residues 1–21, 5 µM) with SAM (20 µM), MALDI-TOF MS in assay [1] greater than 100 µM.

In assay [1], H3F4a4 histone peptide gave an IC50 of inhibition of SETD7 (100 nM) methylation of a 21-mer H3 peptide (residues 1–21, 5 µM) with SAM (20 µM), MALDI-TOF MS greater than 100 µM and a percent inhibition of SETD7 (100 nM) methyltransferase activity at 100 µM peptide, MALDI-TOF MS of 11%.
